For orientation: Km means the substrate concentration at which the rate is half of its maximum. The term kcat denotes the maximal rate divided by the concentration of active sites. What is called kcat/Km is the turnover number divided by the Michaelis constant.

Data set [1] deals with O=C(O)CNCP(=O)(O)O. The data set is described as follows: Substrate saturation kinetic analysis of purified GLYAT. In kind it is biochemical. Particulars: other: SEQ ID NO:26, pH 7.0, non-varied substrate saturating, 37.0 °C. The protocol:
(§1) E. coli cultures in LB or 2×YT were grown overnight at 37° C. to saturation. The cells were used as a 2% inoculum into fresh media. When OD reached 0.6, IPTG was added to 0.2 mM and growth was continued for at least 6 hours. Cells were harvested by centrifugation and stored at −80° C. Cells were lysed with BPER (Pierce) containing 1 mM dithiothreitol, 0.2 mg/ml lysozyme, 2 mg/ml protease inhibitor cocktail (Sigma bacterial cell cocktail, P8465) and endonuclease. Lysate supernatants were passed through a column of NHS-activated Agarose (Thermo, #26197) derivatized with coenzyme A. Columns were washed with 25 mM Hepes, pH 7, containing progressively higher concentrations of KCl, then eluted with 25 mM Hepes, 100 mM KCl, 10% ethylene glycol and 1 mM acetyl CoA. Purity as evaluated by polyacrylamide gel electrophoresis was deemed consistently high enough to be assumed to be 100%. Protein concentration was determined with the Bradford assay using a large-scale lot of produced GLYAT protein as standard.
(§2) Kinetic parameters for various substrates were obtained using a range of seven substrate concentrations plus a blank containing none of the varied substrate. The non-varied substrate was present at a saturating concentration. Six-microliter aliquots of 50-fold concentrated stock solutions of the varied substrate were placed in a 96-well assay plate (Greiner BioOne UV-Star). Reactions were started with the addition of 294 ul of 25 mM Hepes, pH 7.0, 100 mM KCL, 10% ethylene glycol, the non-varied substrate and 10 to 200 nM enzyme. Absorbance was monitored for one minute with a Spectramax 384 Plus plate reader (Molecular Devices). If the amino acid present at position 30 (29 if alanine is absent at position 2) was cysteine, absorbance was monitored at 235 nm, which directly detects cleavage of the sulfoester bond of acetyl CoA. If the amino acid present at position 30 (29 if alanine is absent at position 2) was isoleucine, 0.5 mM 5,5′-dithiobis-(2-nitrobenzoic acid), which reacts with the coenzyme A thiol generated in the enzyme catalyzed reaction, was included in the reaction mix and absorbance was monitored at 412 nm. Initial rates were processed by the Softmax software to obtain kinetic parameters, using the double-reciprocal transformation.
The sequences with the new substitutions were derived through a combination of saturation mutagenesis of an already fit protein (SEQ ID NO:26) and an effective screening cascade as a means of identifying the improved genes (Examples 1-2). Regions in which novel changes are concentrated include helix H2a (positions 23 and 25-29) and the hairpin formed by strands B6 and B7 (positions 124-144). These two structures are components of the amino substrate binding site. Helix H3, the backbone to which the central beta sheet is anchored, is a region where 24% of the novel substitutions (17 out of 71) disclosed in Table 4 are concentrated into 11% of the positions (16 out of 146). None of those are near enough to the active site to influence substrate specificity directly. In three cases, multiple novel substitutions were discovered immediately or nearly adjacent to conserved amino acids shown previously to contribute to the catalytic mechanism (Siehl D L et. al., J Biol Chem, 282:11446, 2007). The catalytic amino acids for which this is the case are R21, R111, H138 and the nearby positions with multiple substitutions are 23, 112 and 137. The diverse amino acids at these positions may influence the orientation of the neighboring catalytic amino acids so as to selectively optimize catalysis with the preferred substrate, glyphosate.

The test system of data set [2] is O=C(O)CNCP(=O)(O)O. Described as above. The data set is classed as biochemical. The settings on record: other: SEQ ID NO:7, pH 7.0, non-varied substrate saturating, 37.0 °C. The protocol:
as §1
as §2, with “Reactions were started with the addition of 294 ul of 25 mM Hepes, pH 7.0, 100 mM KCL, 10% ethylene glycol, the non-varied substrate and 10 to 200 nM enzyme.” left out, “Initial rates were processed by the Softmax software to obtain kinetic parameters, using the double-reciprocal transformation.” left out

In the next data set the test system is N[C@@H](CC(=O)O)C(=O)O. The data set is described as follows: cells, lysate or membranes named. Particulars: 37.0 °C.
The test system of data set [3] is O=C(O)CNCP(=O)(O)O. The experiment in a line: cells, lysate or membranes named. Particulars: 37.0 °C.
Where [4] appears, read: other: SEQ ID NO:4, pH 7.0, non-varied substrate saturating.
The mark [5] stands for this setting: other: SEQ ID NO:2, pH 7.0, non-varied substrate saturating.
[6] abbreviates: other: SEQ ID NO:10, pH 7.0, non-varied substrate saturating.

For the substance “GLYAT (glyphosate-N-acetyltransferase), parent of saturation mutagenesis (already fit protein), SEQ ID NO:26 (derived from SEQ ID NO:1 and 2) (Bacillus licheniformis DSM 13 = ATCC 14580; A28V/C29I/D131E/E14D/E65Q/E67K/E68K/E83D/G37R/I132T/I135A/I15L/I19V/I53V/I91V/K101R/K144R/K58Q/L105M/L26I/L97I/M75V/R47G/R92K/T89S/V114A/Y130F/Y45F)”, in the data set with O=C(O)CNCP(=O)(O)O [1], the Km was 220 µM, the kcat turned out to be 9.33 s⁻¹ and the kcat/Km was found to be 41750 M⁻¹ s⁻¹.
Consider “GLYAT variant SEQ ID NO:7 (derived from SEQ ID NO:1 and 2) (Bacillus licheniformis DSM 13 = ATCC 14580; A28V/D131E/E119K/E14D/E65Q/E67K/E68K/E79G/E83D/G37R/G38S/G48A/I132L/I135A/I15L/I19V/I2L/I53V/I91V/K101R/K144R/K58Q/L105M/L106I/L26I/L36T/L97I/M75V/N109F/R47G/R92K/T33S/T89S/V114A/Y130F/Y31W/Y45F)”, for which, in the data set with O=C(O)CNCP(=O)(O)O [2], the Km worked out at 800 µM, the kcat came out at 7.13 s⁻¹ and the kcat/Km was 8870 M⁻¹ s⁻¹.
For “GLYAT variant SEQ ID NO:4 (derived from SEQ ID NO:1 and 2) (Bacillus licheniformis DSM 13 = ATCC 14580; D131E/E14D/E65Q/E67K/E68K/G37R/G38S/I132T/I135A/I15L/I19V/I53V/I91V/K101R/K144R/K58Q/L105M/L26I/L36T/L97I/M75V/R47G/R92K/T33S/T89S/V114A/Y130F/Y31F/Y45F)”, in the data set with N[C@@H](CC(=O)O)C(=O)O (setting [4]), the Michaelis constant (Km) was 78300 µM, the catalytic constant (kcat) amounted to 2.27 s⁻¹ and the kcat/Km was found to be 29 M⁻¹ s⁻¹. In addition, in the data set on O=C(O)CNCP(=O)(O)O [3] (setting [4]), the Km worked out at 1960 µM, the kcat was 26.88 s⁻¹ and the catalytic efficiency (kcat/Km) came to 13800 M⁻¹ s⁻¹.
For “GLYAT (glyphosate-N-acetyltransferase), parent, SEQ ID NO:2 (Bacillus licheniformis DSM 13 = ATCC 14580; A28V/D131E/E119K/E63D/E65Q/E67Q/E68K/E83D/E96Q/G37R/I132T/I135V/I15L/I2L/K101R/K144R/K58Q/L105M/L97I/R18K/T89S/V114A/Y130F/Y45F)”, in the data set on N[C@@H](CC(=O)O)C(=O)O (setting [5]), the Michaelis-Menten constant (Km) was determined as 47600 µM, the turnover number (kcat) amounted to 0.887 s⁻¹ and the kcat/Km was determined as 18.7 M⁻¹ s⁻¹. Besides, in the data set on O=C(O)CNCP(=O)(O)O [3] (setting [5]), the Km is 1380 µM, the kcat turned out to be 4.52 s⁻¹ and the specificity constant (kcat/Km) turned out to be 3270 M⁻¹ s⁻¹.
For the substance “GLYAT variant SEQ ID NO:10 (derived from SEQ ID NO:1 and 2) (Bacillus licheniformis DSM 13 = ATCC 14580; A28V/D131E/E14D/E65Q/E67K/E68K/G37R/G38S/H61R/I132T/I135A/I15L/I19V/I53V/I91V/K101R/K144R/K58Q/L105M/L106I/L26I/L97I/M75V/R47G/R92K/T89S/V114A/Y130F/Y45F)”, in the data set on N[C@@H](CC(=O)O)C(=O)O (setting [6]), the Michaelis constant (Km) is 89300 µM, the kcat stood at 2.48 s⁻¹ and the kcat/Km turned out to be 28.2 M⁻¹ s⁻¹. For the same substance, in the data set on O=C(O)CNCP(=O)(O)O [3] (setting [6]), the Michaelis-Menten constant (Km) amounted to 370 µM, the turnover number (kcat) stood at 11.6 s⁻¹ and the catalytic efficiency (kcat/Km) turned out to be 31680 M⁻¹ s⁻¹.
